From patent US20120231006A1 (Amgen, published 2012)
Where a chain is given by its changes, count along the chain named.

B1: mAb 5C1.1 (antibody, human IgG2, lambda, V domains shown)
VH: QVQLVQSGAEVKKPGASVKVSCKASGYTFTDYYMNWVRQAPGQGLEWMGWINPNSGGTKYAQKFQGRVTMTRDTSIRTAYMELSRLRSDDTAVYYCAREYGGNSDWFDPWGQGTLVTVSS
VL: QSVLTQPPSVSGAPGQRVTISCTGSSSNIGAGYDVHWYQQLPGTAPKLLIYGNSNRPSGVPDRFSGSKSGTSASLAITGLQAEDEADYYCQSYDNRLSDSVVIGGGTKLAVQG
notes: fully human IgG2 lambda, Campaign 2
B2: mAb 5F2.1 (antibody, human IgG2, lambda, V domains shown)
VH: B1 VH with K59H, R77S, N103Y
VL: B1 VL with S26R, G43R, G52D, T71S, R96S, V102L, A110T, Q112L
notes: as for B1
B3: mAb 5A1.1 (antibody, human IgG2)
heavy: QVQLVQSGAEVKKPGASVKVPCKASGYTFTDYYINWVRQAPGQGLEWMGWINPNNGGTNYAQKFQGRVTMTRDTSISTAYMELRRLRSDDTAVYYCARERGGYEDWFDPWGQGTLVTVSSASTKGPSVFPLAPCSRSTSESTAALGCLVKDYFPEPVTVSWNSGALTSGVHTFPAVLQSSGLYSLSSVVTVPSSNFGTQTYTCNVDHKPSNTKVDKTVERKCCVECPPCPAPPVAGPSVFLFPPKPKDTLMISRTPEVTCVVVDVSHEDPEVQFNWYVDGVEVHNAKTKPREEQFNSTFRVVSVLTVVHQDWLNGKEYKCKVSNKGLPAPIEKTISKTKGQPREPQVYTLPPSREEMTKNQVSLTCLVKGFYPSDIAVEWESNGQPENNYKTTPPMLDSDGSFFLYSKLTVDKSRWQQGNVFSCSVMHEALHNHYTQKSLSLSPGK
VL: QSVLTQPPSVSGAPGQRVTISCTGSSSNIGAGFDVHWYQQLPVTAPKLLIYGNRNRPSGVPARFSGSKSGTSASLAITGLQAEDEAVYYCQSYDSSLTVFGGGTKLTVL
notes: fully human, Campaign 2; lambda CL-1
B4: mAb 5B5.2 (antibody, human IgG2, lambda, V domains shown)
VH: B1 VH with M34I, K59D, S84N, R87T, N103Y, S104E
VL: QSVLTQPPSVSGAPGQRVTISCTGSNSNIGAGFDVHWYQQLPGTVPKLLIYGNNNRPSGVPDRFSGSKSGTSASLAITGLQAEDEADYYCQSYDSRLTVFGGGTKLTVLG
notes: fully human IgG2 lambda, Campaign 2; same chains as 5B5.1

Target: T1, mOrai1-hOrai1 ECL2 (SPTKPPAE) protein (human/mouse chimera, UniProt Q8BWG9 1-304 (mouse entry))
T1 construct: also called Ch
Test: flow cytometry on HEK-293 cells transfected with the chimera (loss of binding experiment)

T1 sequence (Q8BWG9 other isoform, or with tags, fused parts or gaps): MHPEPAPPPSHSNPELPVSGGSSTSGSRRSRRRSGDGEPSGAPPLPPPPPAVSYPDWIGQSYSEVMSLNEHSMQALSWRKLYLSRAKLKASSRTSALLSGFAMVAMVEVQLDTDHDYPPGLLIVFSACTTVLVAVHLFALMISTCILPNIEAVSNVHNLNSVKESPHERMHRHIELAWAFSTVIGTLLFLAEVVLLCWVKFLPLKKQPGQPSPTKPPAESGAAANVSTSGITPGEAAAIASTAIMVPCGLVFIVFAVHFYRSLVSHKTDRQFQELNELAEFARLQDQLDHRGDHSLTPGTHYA

Binder | binding result
B1 | no binding
B2 | no binding
B3 | no binding
B4 | no binding

Target: T2, mOrai1-hOrai1 ECL2 (AESVIV) protein (human/mouse chimera, UniProt Q8BWG9 1-304 (mouse entry))
T2 construct: also called Ch
Test: as above

T2 sequence (Q8BWG9 other isoform, or with tags, fused parts or gaps): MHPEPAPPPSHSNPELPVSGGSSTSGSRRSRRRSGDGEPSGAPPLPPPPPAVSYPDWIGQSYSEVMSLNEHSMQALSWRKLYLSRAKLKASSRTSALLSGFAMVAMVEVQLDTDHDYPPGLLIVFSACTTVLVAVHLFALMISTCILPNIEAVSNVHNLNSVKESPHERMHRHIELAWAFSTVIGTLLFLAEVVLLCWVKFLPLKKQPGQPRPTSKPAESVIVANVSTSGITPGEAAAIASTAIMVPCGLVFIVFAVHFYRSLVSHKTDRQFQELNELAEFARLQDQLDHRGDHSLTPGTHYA

Binder | binding result
B1 | no binding
B2 | no binding
B3 | no binding
B4 | no binding

Target: T3, mOrai1-hOrai1 ECL2 (…) protein (human/mouse chimera, UniProt Q8BWG9 1-304 (mouse entry))
T3 construct: also called Ch
Test: as above
T3 sequence (Q8BWG9 other isoform, or with tags, fused parts or gaps): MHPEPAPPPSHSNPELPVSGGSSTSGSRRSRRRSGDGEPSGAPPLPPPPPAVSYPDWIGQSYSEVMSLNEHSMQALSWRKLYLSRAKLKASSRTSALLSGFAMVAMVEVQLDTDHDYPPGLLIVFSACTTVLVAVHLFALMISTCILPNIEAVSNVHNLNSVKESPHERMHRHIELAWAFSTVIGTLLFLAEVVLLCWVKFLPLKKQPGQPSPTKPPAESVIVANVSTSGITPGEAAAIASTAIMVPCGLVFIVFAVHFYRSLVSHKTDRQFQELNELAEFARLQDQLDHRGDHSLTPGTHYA

Binder | binding result
B1 | no binding
B2 | no binding
B3 | no binding
B4 | no binding

Target: T4, mOrai1-hOrai1 ECL2 (…) protein (human/mouse chimera, UniProt Q8BWG9 1-304 (mouse entry))
T4 construct: also called Ch
Test: as above
T4 sequence (Q8BWG9 other isoform, or with tags, fused parts or gaps): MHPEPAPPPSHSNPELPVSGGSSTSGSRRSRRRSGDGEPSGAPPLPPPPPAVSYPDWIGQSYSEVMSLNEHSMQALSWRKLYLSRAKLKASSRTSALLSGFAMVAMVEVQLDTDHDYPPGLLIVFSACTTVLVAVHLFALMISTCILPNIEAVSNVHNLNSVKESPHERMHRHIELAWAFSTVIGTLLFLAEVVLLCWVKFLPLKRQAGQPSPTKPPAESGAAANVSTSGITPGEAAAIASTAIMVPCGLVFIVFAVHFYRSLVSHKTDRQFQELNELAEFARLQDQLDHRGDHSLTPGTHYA

Binder | binding result
B1 | no binding
B2 | no binding
B3 | no binding
B4 | no binding

Target: T5, mOrai1-hOrai1 ECL2 (…) protein (human/mouse chimera, UniProt Q8BWG9 1-304 (mouse entry))
T5 construct: also called Ch
Test: as above
T5 sequence (Q8BWG9 other isoform, or with tags, fused parts or gaps): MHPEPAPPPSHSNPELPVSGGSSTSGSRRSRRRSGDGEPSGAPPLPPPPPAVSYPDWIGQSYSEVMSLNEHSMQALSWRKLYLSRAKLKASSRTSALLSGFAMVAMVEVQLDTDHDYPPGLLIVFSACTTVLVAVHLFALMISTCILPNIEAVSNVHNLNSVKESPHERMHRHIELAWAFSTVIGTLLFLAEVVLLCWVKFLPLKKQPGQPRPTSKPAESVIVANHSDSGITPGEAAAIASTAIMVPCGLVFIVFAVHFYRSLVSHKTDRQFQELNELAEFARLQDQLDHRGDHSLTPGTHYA

Binder | binding result
B1 | no binding
B2 | no binding
B3 | no binding
B4 | no binding

Target: T6, mOrai1-hOrai1 ECL2 (…) protein (human/mouse chimera, UniProt Q8BWG9 1-304 (mouse entry))
T6 construct: also called Ch
Test: as above
T6 sequence (Q8BWG9 other isoform, or with tags, fused parts or gaps): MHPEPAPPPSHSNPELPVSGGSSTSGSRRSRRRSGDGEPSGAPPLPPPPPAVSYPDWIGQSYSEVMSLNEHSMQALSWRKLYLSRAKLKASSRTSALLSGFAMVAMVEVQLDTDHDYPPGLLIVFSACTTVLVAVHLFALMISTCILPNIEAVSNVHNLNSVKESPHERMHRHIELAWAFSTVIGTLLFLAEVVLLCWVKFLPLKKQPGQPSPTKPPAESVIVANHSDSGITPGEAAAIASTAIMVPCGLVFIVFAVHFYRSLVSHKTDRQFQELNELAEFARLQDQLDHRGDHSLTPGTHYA

Binder | binding result
B1 | no binding
B2 | no binding
B3 | no binding
B4 | no binding

Target: T7, mOrai1-hOrai1 ECL2 (KPPAE) protein (human/mouse chimera, UniProt Q8BWG9 1-304 (mouse entry))
T7 construct: also called Ch
Test: as above

T7 sequence (Q8BWG9 other isoform, or with tags, fused parts or gaps): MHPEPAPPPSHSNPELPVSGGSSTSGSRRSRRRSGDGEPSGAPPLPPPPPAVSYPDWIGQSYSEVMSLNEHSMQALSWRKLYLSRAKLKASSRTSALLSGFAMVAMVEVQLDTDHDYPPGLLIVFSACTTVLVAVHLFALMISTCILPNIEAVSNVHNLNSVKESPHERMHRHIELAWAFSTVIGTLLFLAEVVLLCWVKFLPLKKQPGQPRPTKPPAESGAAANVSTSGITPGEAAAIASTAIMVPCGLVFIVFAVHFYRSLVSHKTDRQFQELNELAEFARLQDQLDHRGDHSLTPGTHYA

Binder | binding result
B1 | no binding
B2 | no binding
B3 | no binding
B4 | no binding

Target: T8, hOrai1-mOrai1 ECL2 chimeric protein (human/mouse chimera, UniProt Q96D31 1-301)
T8 construct: human Orai1 with mouse ECL2; also called Ch
Test: FACS, 293EBNA transfectants
From the text: FIG. 15A-B illustrates the results of FACS analysis showing binding to human Orai1 extracellular loop 2-mouse Orai1 mutant expressed on the surface of HEK-293-EBNA cells. HEK-293-EBNA cells were transiently transfected with mouse Orai1 mutant where human Orai1 extracellular loop 2 replaced the mouse Orai1 extracellular loop 2 and human Orai1 mutant where mouse Orai1 extracellular loop 2 replaced human extracellular loop 2. Transfected cells were stained first with recombinant monoclonal antibodies then counter-stained with a secondary phycoerythrin-labeled goat (“Gt”) anti-human (“Hu”) IgG F(ab′)₂ antibody fragment and visualized using FACS.
FACS binding analysis. Transfected 293EBNA cells transiently expressed hOrai1-mOrai1 ECL2 or mOrai1-hOrai1 ECL2 chimera. The transfected cells were harvested at 48 hours post-transfection. Cells transfected with pcDNA3.1 were used as negative controls. Cells were washed once with ice-cold 1×PBS, resuspended in ice-cold FACS buffer (1×D-PBS+2% goat serum), and 2×10⁵ cells in 100 μL were stained per antibody combination. All antibody incubation steps were performed on ice for 1 hour. […] Next, the unlabelled antibody was detected using goat F(ab′)₂ anti-mouse or anti-human IgG-phycoerythrin (IgG-PE), followed by a wash with 200 μL of ice-cold FACS buffer before flow cytometry analysis. Unstained cells and cells stained with detecting antibodies were used as negative controls. The values of relative level of fluorescence were calculated using FCS Express (De Novo Software) and mean values were calculated using log-transformed data (geometric mean). The results of the FACS analysis are shown in FIG. 15A-B, which supports the conclusion that the hOrai1 ECL2 domain is the region of hOrai1 where antibodies of the present invention bind.

T8 sequence (Q96D31 other isoform, or with tags, fused parts or gaps mutant): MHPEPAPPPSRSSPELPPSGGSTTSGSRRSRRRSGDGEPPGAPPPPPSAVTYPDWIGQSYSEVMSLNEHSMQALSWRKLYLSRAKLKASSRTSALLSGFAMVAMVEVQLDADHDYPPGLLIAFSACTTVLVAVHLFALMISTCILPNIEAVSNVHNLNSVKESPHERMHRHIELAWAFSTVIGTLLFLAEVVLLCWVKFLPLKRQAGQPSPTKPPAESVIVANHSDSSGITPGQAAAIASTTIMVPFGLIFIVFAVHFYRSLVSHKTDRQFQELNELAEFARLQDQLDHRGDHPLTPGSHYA

Binder | binding result
B1 | no binding (tested: 1 µg)
B2 | no binding (tested: 1 µg)
B3 | no binding (tested: 1 µg)
B4 | no binding (tested: 1 µg)

Target: T8, hOrai1-mOrai1 ECL2 chimeric protein
Test: FACS, 293EBNA
Parameters: concentration or dose not given beside the values
From the text: (§1) FIG. 17A-D illustrates the results of FACS analysis showing binding to the indicated mOrai1-hOrai1 ECL2 chimeric mutants expressed on the surface of HEK-293-EBNA cells. Transfected cells were stained first with recombinant monoclonal antibodies then counter-stained with a secondary phycoerythrin-labeled goat (“Gt”) anti-human (“Hu”) IgG F(ab′)₂ antibody fragment and visualized using FACS.
(§2) Representative results of FACS analysis of binding to the mutant hOrai1-mOrai1 ECL2 chimera described above by exemplary anti-hOrai1 antibodies of the present invention are shown in FIG. 17A-D, Table 10A and Table 10B below. Table 10A (Campaign 1) and Table 10B (Campaign 2) show the gain in binding ability of exemplary monoclonal antibodies to hOrai 1-mOrai 1 ECL2 chimera mutants as determined by FACS.

Binder | percent of control (POC) of FACS Geo Mean [%]
B1 | < 1
B2 | < 1
B3 | < 1
B4 | < 1

Target: T9, hOrai1-mOrai1 ECL2 (VST) protein (human/mouse chimera, UniProt Q96D31 1-301)
T9 construct: also called Ch
Test: FACS, 293EBNA
Parameters: concentration or dose not given beside the values
From the text: as §1, §2

T9 sequence (Q96D31 other isoform, or with tags, fused parts or gaps): as the sequence (Q96D31 other isoform, or with tags, fused parts or gaps mutant) above, with H224V, D226T counted along it

Binder | percent of control (POC) of FACS Geo Mean [%]
B1 | < 1
B2 | < 1
B3 | < 1
B4 | < 1

Target: T10, hOrai1-mOrai1 ECL2 (GAA) protein (human/mouse chimera, UniProt Q96D31 1-301)
T10 construct: also called Ch
Test: FACS, 293EBNA
Parameters: concentration or dose not given beside the values
From the text: as §1, §2

T10 sequence (Q96D31 other isoform, or with tags, fused parts or gaps): as the sequence (Q96D31 other isoform, or with tags, fused parts or gaps mutant) above, with V219G, I220A, V221A counted along it

Binder | percent of control (POC) of FACS Geo Mean [%]
B1 | < 1
B2 | < 1
B3 | < 1
B4 | < 1

Target: T11, hOrai1-mOrai1 ECL2 (…) protein (human/mouse chimera, UniProt Q96D31 1-301)
T11 construct: also called Ch
Test: FACS, 293EBNA
Parameters: concentration or dose not given beside the values
From the text: as §1, §2

T11 sequence (Q96D31 other isoform, or with tags, fused parts or gaps): as the sequence (Q96D31 other isoform, or with tags, fused parts or gaps mutant) above, with A216P, E217A, V219G, I220A, V221A, H224V, D226T counted along it

Binder | percent of control (POC) of FACS Geo Mean [%]
B1 | < 1
B2 | < 1
B3 | < 1
B4 | < 1

Target: T12, hOrai1-mOrai1 ECL2 (PASGAA) protein (human/mouse chimera, UniProt Q96D31 1-301)
T12 construct: also called Ch
Test: FACS, 293EBNA
Parameters: concentration or dose not given beside the values
From the text: as §1, §2

T12 sequence (Q96D31 other isoform, or with tags, fused parts or gaps): as the sequence (Q96D31 other isoform, or with tags, fused parts or gaps mutant) above, with A216P, E217A, V219G, I220A, V221A counted along it

Binder | percent of control (POC) of FACS Geo Mean [%]
B1 | < 1
B2 | < 1
B3 | < 1
B4 | < 1

Target: T13, hOrai1-mOrai1 ECL2 (AANVST) protein (human/mouse chimera, UniProt Q96D31 1-301)
T13 construct: also called Ch
Test: FACS, 293EBNA
Parameters: concentration or dose not given beside the values
From the text: as §1, §2

T13 sequence (Q96D31 other isoform, or with tags, fused parts or gaps): as the sequence (Q96D31 other isoform, or with tags, fused parts or gaps mutant) above, with V221A, H224V, D226T counted along it

Binder | percent of control (POC) of FACS Geo Mean [%]
B1 | < 1
B2 | < 1
B3 | < 1
B4 | < 1
